Biological target: Human VEGF165 (human) (UniProt P15692)
Assay: ELISA; human VEGF165 coated on MaxiSorp plates (0.4 µg/mL in PBS, pH 7.4, overnight); aflibercept samples added as 2-fold serial dilutions (1000.0-1.0 ng/mL) in 4% milk powder in PBS-T, RT, 1.5 h; detected with anti-human IgG γ chain-HRPO; EC50 by four-parametric log model

Human VEGF165 (human), sequence (P15692 other isoform, or with tags, fused parts or gaps): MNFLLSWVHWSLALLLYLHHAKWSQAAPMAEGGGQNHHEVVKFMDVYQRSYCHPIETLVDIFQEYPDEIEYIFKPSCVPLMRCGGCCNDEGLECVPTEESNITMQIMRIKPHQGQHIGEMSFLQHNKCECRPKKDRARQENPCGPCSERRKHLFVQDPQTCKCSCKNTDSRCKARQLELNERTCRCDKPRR
Aflibercept with sialylated N-glycans (AFLI^Sia), isolated from intercellular fluid (Fc fusion), sequence (chain): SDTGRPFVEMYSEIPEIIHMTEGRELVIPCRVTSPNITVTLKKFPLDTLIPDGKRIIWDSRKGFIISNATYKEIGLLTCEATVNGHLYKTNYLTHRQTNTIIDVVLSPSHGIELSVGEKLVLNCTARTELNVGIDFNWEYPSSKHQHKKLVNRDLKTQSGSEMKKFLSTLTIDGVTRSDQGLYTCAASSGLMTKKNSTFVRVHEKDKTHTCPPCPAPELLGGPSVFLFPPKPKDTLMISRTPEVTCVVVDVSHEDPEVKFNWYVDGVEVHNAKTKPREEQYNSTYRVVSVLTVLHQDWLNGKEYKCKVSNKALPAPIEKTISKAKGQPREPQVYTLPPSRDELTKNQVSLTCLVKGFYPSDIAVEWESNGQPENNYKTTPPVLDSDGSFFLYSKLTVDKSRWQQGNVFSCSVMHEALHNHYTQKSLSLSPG
Aflibercept with GlcNAc-terminated N-glycans (AFLI^GnGn), isolated from total soluble protein (Fc fusion), sequence (chain): as above
Aflibercept with sialylated N-glycans (AFLI^Sia), isolated from total soluble protein (Fc fusion), sequence (chain): as above

Substance | EC50 [nM]
Aflibercept with GlcNAc-terminated N-glycans (AFLI^GnGn), isolated from total soluble protein (Fc fusion) | 0.242
Aflibercept with sialylated N-glycans (AFLI^Sia), isolated from intercellular fluid (Fc fusion) | 0.358
Aflibercept with sialylated N-glycans (AFLI^Sia), isolated from total soluble protein (Fc fusion) | 0.31

From PMC11036266
